Results reported in article PMC8031885, “Targeted mutagenesis on PDGFRα-Fc identifies amino acid modifications that allow efficient inhibition of HCMV infection while abolishing PDGF sequestration” (PLoS Pathogens, 2021).
Changes are numbered by the printed parent chain. Names and notes keep the numbering of the source.

B1: PDGFRα-Fc wild type (Fc fusion)
chain: QLSLPSILPNENEKVVQLNSSFSLRCFGESEVSWQYPMSEEESSDVEIRNEENNSGLFVTVLEVSSASAAHTGLYTCYYNHTQTEENELEGRHIYIYVPDPDVAFVPLGMTDYLVIVEDDDSAIIPCRTTDPETPVTLHNSEGVVPASYDSRQGFNGTFTVGPYICEATVKGKKFQTIPFNVYALKATSELDLEMEALKTVYKSGETIVVTCAVFNNEVVDLQWTYPGEVKGKGITMLEEIKVPSIKLVYTLTVPEATVKDSGDYECAARQATREVKEMKKVTISVHEKGFIEIKPTFSQLEAVNLHEVKHFVVEVRAYPPPRISWLKNNLTLIENLTEITTDVEKIQEIRYRSKLKLIRAKEEDSGHYTIVAQNEDAVKSYTFELLTQVPSSILDLVDDHHGSTGGQTVRCTAEGTPLPDIEWMICKDIKKCNNETSWTILANNVSNIITEIHSRDRSTVEGRVTFAKVEETIAVRCLAKNLLGAENRELKLVAPTLRSELTVA
B2: PDGFRα-Fc I139E + V242K (Fc fusion)
chain: B1 chain with I116E, V219K
B3: PDGFRα-Fc I139E (Fc fusion)
chain: B1 chain with I116E
B4: PDGFRα-Fc I139E + Y206S (Fc fusion)
chain: B1 chain with I116E, Y183S
B5: PDGFRα-Fc Y206S + V242K (Fc fusion)
chain: B1 chain with Y183S, V219K
B6: PDGF-BB (ligand, UniProt P01127 82-190, looked up)
chain: SLGSLTIAEPAMIAECKTRTEVFEISRRLIDRTNANFLVWPPCVEVQRCSGCCNNRNVQCRPTQVQLRPVQVRKIEIVRKKPIFKKATVTLEDHLACKCETVAAARPVT
modifications: NT-647 dye on amines (amine reactive labelling kit RED-NHS) in the MST experiments; unlabelled in the signalling assays
notes: PDGF-B chain of dimeric PDGF-BB, bought recombinant protein; also called dimeric PDGF-BB; source: bought: R&D # 220-BB
B7: PDGFRα-Fc Y206S (Fc fusion)
chain: B1 chain with Y183S
B8: PDGFRα-Fc I139A + Y206A (Fc fusion)
chain: B1 chain with I116A, Y183A

Tests used:
[1] = target: B6; assay: cell-based or functional assay
[2] = target: T1, gH/gL/gO trimer of HCMV TB40-BAC4 (human cytomegalovirus, strain TB40/E …); assay: cell-based or functional assay
[3] = target: T1, gH/gL/gO trimer of HCMV TB40-BAC4; assay: cell-based or functional assay; remark: listed apart in the source
[4] = target: T1, gH/gL/gO trimer of HCMV TB40-BAC4; assay: cell-based or functional assay; remark: listed apart in the source
[5] = target: T2, PDGFRα-Fc V242K (UniProt P16234-1 24-528, V242K); assay: MST; Monolith NT.115 Pico; read-out: dose-dependent changes of MST traces (F1 over F0; MST-on time 4-5 s in Fig 7, 1.5-2.5 s in Fig 10A); 0.1 nmol/l NT-647-labelled PDGF-BB constant, PDGFRα-Fc titrated; 60% excitation power; 0.025% Tween-20, 50 mM NaCl; 25°C; settings: both partners purified
T2 construct: PDGFRα (CD140a), extracellular domain, aa 24 to 528, NCBI XP_005265800; Point mutant of m1; also called V242K single mutant; source: HEK 293 F suspension cells, transiently transfected (PEI), purified from the medium with Protein A beads

[6] = target: B4; assay: as above; settings: both partners purified
[7] = target: B8; assay: MST; Monolith NT.115 Pico; read-out: dose-dependent photo-bleaching (fluorescence quenching) rate in a prolonged initial fluorescence segment (5 s) before the thermophoresis segment; 0.1 nmol/l NT-647-labelled PDGF-BB constant, PDGFRα-Fc variants in 16 concentrations over 5 log steps; 60% excitation power; one site binding model; IgG elution buffer neutralised with 0.1 M Tris pH 8.0, 0.025% Tween-20, 50 mM NaCl; 25°C; settings: both partners purified
[8] = target: B1; assay: as above; settings: both partners purified
[9] = target: B3; assay: as above; settings: both partners purified
[10] = target: B7; assay: as above; settings: both partners purified

Binder: B1
- EC50 for inhibition of PDGF signaling (6 ng/ml PDGF-BB, phospho-Akt ELISA, fibroblasts) [1]: 0.013 µg/mL
- EC50 of inhibition of HCMV TB40-BAC4-IE-GLuc infection of fibroblasts (Gaussia luciferase read-out) [2]: < 0.02 µg/mL
- EC50 of inhibition of HCMV TB40-BAC4 infection of fibroblasts and of endothelial cells (immediate-early antigen staining) [2]: ~0.01 µg/mL
- HCMV inhibition EC50 (TB40-BAC4-IE-GLuc, fibroblasts, immediate-early antigen staining) [3]: 0.0056 µg/mL
- HCMV inhibition EC50 (Table 2; differs from Table 1) [4]: 0.0046 µg/mL

Binder: B2
- HCMV inhibition EC50 (fibroblasts, immediate-early antigen staining) [2]: 0.027 µg/mL

Binder: B3
- EC50 for inhibition of PDGF signaling (6 ng/ml PDGF-BB, phospho-Akt ELISA, fibroblasts); the paper says incomplete inhibition precludes a precise value [1]: ~2 µg/mL
- HCMV inhibition EC50 (TB40-BAC4-IE-GLuc, fibroblasts, immediate-early antigen staining) [3]: 0.0328 µg/mL

Binder: B4
- HCMV inhibition EC50 (TB40-BAC4-IE-GLuc, fibroblasts, immediate-early antigen staining) [3]: 0.0252 µg/mL

Binder: B5
- HCMV inhibition EC50 (fibroblasts, immediate-early antigen staining) [2]: 0.047 µg/mL

Binder: B6
- Kd [5]: 92 nM
- Kd [6]: 200 nM
- Kd [7]: 4.6 nM
- Kd [8]: 0.14 nM
- Kd [9]: 4.02 nM
- Kd [10]: 7.32 nM

Binder: B7
- HCMV inhibition EC50 (TB40-BAC4-IE-GLuc, fibroblasts, immediate-early antigen staining) [3]: 0.0311 µg/mL

Binder: B8
- HCMV inhibition EC50 (TB40-BAC4-IE-GLuc, fibroblasts, immediate-early antigen staining) [3]: 0.0198 µg/mL
